Experimental findings from PMC6868009 (Nature Communications, 2019) are described below.

To fix the notation:
B1: TcdB2 (TcB) of the TcdB2-TccC3 cocoon (natural protein)
chain: MQNSQDFSITELSLPKGGGAITGMGEALTPTGPDGMAALSLPLPISAGRGYAPAFTLNYNSGAGNSPFGLGWDCNVMTIRRRTHFGVPHYDETDTFLGPEGEVLVVADQPRDESTLQGINLGATFTVTGYRSRLESHFSRLEYWQPKTTGKTDFWLIYSPDGQVHLLGKSPQARISNPSQTTQTAQWLLEASVSSRGEQIYYQYRAEDDTGCEADEITHHLQATAQRYLHIVYYGNRTASETLPGLDGSAPSQADWLFYLVFDYGERSNNLKTPPAFSTTGSWLCRQDRFSRYEYGFEIRTRRLCRQVLMYHHLQALDSKITEHNGPTLVSRLILNYDESAIASTLVFVRRVGHEQDGNVVTLPPLELAYQDFSPRHHAHWQPMDVLANFNAIQRWQLVDLKGEGLPGLLYQDKGAWWYRSAQRLGEIGSDAVTWEKMQPLSVIPSLQSNASLVDINGDGQLDWVITGPGLRGYHSQRPDGSWTRFTPLNALPVEYTHPRAQLADLMGAGLSDLVLIGPKSVRLYANTRDGFAKGKDVVQSGDITLPVPGADPRKLVAFSDVLGSGQAHLVEVSATKVTCWPNLGRGRFGQPITLPGFSQPATEFNPAQVYLADLDGSGPTDLIYVHTNRLDIFLNKSGNGFAEPVTLRFPEGLRFDHTCQLQMADVQGLGVASLILSVPHMSPHHWRCDLTNMKPWLLNEMNNNMGVHHTLRYRSSSQFWLDEKAAALTTGQTPVCYLPFPIHTLWQTETEDEISGNKLVTTLRYARGAWDGREREFRGFGYVEQTDSHQLAQGNAPERTPPALTKNWYATGLPVIDNALSTEYWRDDQAFAGFSPRFTTWQDNKDVPLTPEDDNSRYWFNRALKGQLLRSELYGLDDSTNKHVPYTVTEFRSQVRRLQHTDSRYPVLWSSVVESRNYHYERIASDPQCSQNITLSSDRFGQPLKQLSVQYPRRQQPAINLYPDTLPDKLLANSYDDQQRQLRLTYQQSSWHHLTNNTVRVLGLPDSTRSDIFTYGAENVPAGGLNLELLSDKNSLIADDKPREYLGQQKTAYTDGQNTTPLQTPTRQALIAFTETTVFNQSTLSAFNGSIPSDKLSTTLEQAGYQQTNYLFPRTGEDKVWVAHHGYTDYGTAAQFWRPQKQSNTQLTGKITLIWDANYCVVVQTRDAAGLTTSAKYDWRFLTPVQLTDINDNQHLITLDALGRPITLRFWGTENGKMTGYSSPEKASFSPPSDVNAAIELKKPLPVAQCQVYAPESWMPVLSQKTFNRLAEQDWQKLYNARIITEDGRICTLAYRRWVQSQKAIPQLISLLNNGPRLPPHSLTLTTDRYDHDPEQQIRQQVVFSDGFGRLLQAAARHEAGMARQRNEDGSLIINVQHTENRWAVTGRTEYDNKGQPIRTYQPYFLNDWRYVSNDSARQEKEAYADTHVYDPIGREIKVITAKGWFRRTLFTPWFTVNEDENDTAAEVKKVKM

Test [1] deals with Photorhabdus luminescens TcdA1 (TcA) (Photorhabdus luminescens, UniProt Q9RN43 1-2516). Description: cryo-EM structure. The note with it: both partners purified.
Test [2] deals with B1. Description: crystal structure. Conditions: both partners purified.

Regarding B1, the binding result in test [1] is on record as “binds”.

B2: TccC3 (TcC) of the TcdB2-TccC3 cocoon, without the HVR (domain or fragment)
chain: MKNIDPKLYQKTPTVSVYDNRGLIIRNIDFHRTTANGDPDTRITRHQYDIHGHLNQSIDPRLYEAKQTNNTIKPNFLWQYDLTGNPLCTESIDAGRTVTLNDIEGRPLLTVTATGVIQTRQYETSSLPGRLLSVAEQTPEEKTSRITERLIWAGNTEAEKDHNLAGQCVRHYDTAGVTRLESLSLTGTVLSQSSQLLIDTQEANWTGDNETVWQNMLADDIYTTLSTFDATGALLTQTDAKGNIQRLAYDVAGQLNGSWLTLKGQTEQVIIKSLTYSAAGQKLREEHGNDVITEYSYEPETQRLIGIKTRRPSDTKVLQDLRYEYDPVGNVISIRNDAEATRFWHNQKVMPENTYTYDSLYQLISATGREMANIGQQSHQFPSPALPSDNNTYTNYTRTYTYDRGGNLTKIQHSSPATQNNYTTNITVSNRSNRAVLSTLTEDPAQVDALFDAGGHQNTLISGQNLNWNTRGELQQVTLVKRDKGANDDREWYRYSGDGRRMLKINEQQASNNAQTQRVTYLPNLELRLTQNSTATTEDLQVITVGEAGRAQVRVLHWESGKPEDIDNNQLRYSYDNLIGSSQLELDSEGQIISEEEYYPYGGTALWAARNQTEASYKTIRYSGKERDATGLYYYGYRYYQPWIGRWLSSDPAGTIDGLNLYRMVRNNPVTLLDPDGL
Consider B2, for which the binding result in test [2] is listed as “binds”.
